Assay [1] addresses T1, Thermus thermophilus SlyD-IGF-1(74-90) fusion polypeptide.
T1 construct: also called Thermo Thermophilus SlyD-IGF-1 fusion polypeptide; Thermus thermophilus-IGF-1 fusion polypeptide
T1 chain: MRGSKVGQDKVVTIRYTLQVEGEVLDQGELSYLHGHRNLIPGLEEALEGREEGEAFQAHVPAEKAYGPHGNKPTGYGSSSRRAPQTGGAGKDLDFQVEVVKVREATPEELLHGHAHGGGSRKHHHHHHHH
Description: ELISA, clone culture supernatant.

In assay [2] the target is T2, native recombinant human IGF-1 (human, UniProt P05019 49-118).
T2 construct: In the ELISAs it was biotinylated and held on streptavidin plates; also called native IGF-1; native human IGF-1 (Peprotech)
Kind of assay: SPR at 37 °C, clone culture supernatant antibody captured.

Assay [3] addresses T1, Thermus thermophilus SlyD-IGF-1(74-90) …. The assay is described as above.
Assay [4] deals with T2, native recombinant human IGF-1. Description: SPR kinetics at 37 °C, clone culture supernatant, IGF-1 as analyte.
In assay [5] the target is T1, Thermus thermophilus SlyD-IGF-1(74-90) …. Kind of assay: SPR at 25 °C, mAb captured, antigen as analyte.

B1: <IGF-1>M-11.11.17 (antibody, V domains shown)
VH: QVQLQQSGAELVRPGSSVKISCKASGYAFSNLWMNWVKQRPGQGLEWIGQIYPGDGDTNYYGDFKGKATLTADSSSSTAYMQLSRLTSEDSAVYFCARIGYYGMDYWGQGTSVTVSS
VL: DVVLTQTPLSLPVNIGDEASISCKSTKSLLSSDGLTYLDWYLQKPGQSPQVLIYLVSNRFSGVPDRFSGSGSGTDFTLKISRVEAEDLGVYYCFQSNYLPTFGAGTKLELK
On to B1, for which the reactivity in assay [1] is 2150 mE. In addition, in assay [2], the koff was found to be 1e-05 s⁻¹. This molecule showed a koff in assay [3] of 1e-05 s⁻¹. Moreover, in assay [4], the Ka amounted to 2.2e+10 M⁻¹, the equilibrium dissociation constant (Kd) stood at 0.046 nM, the koff is 0.00014 s⁻¹ and the kon was determined as 3.1e+06 M⁻¹ s⁻¹. In assay [5], this molecule had a dissociation constant Kd of 0.01 nM, an off-rate constant (koff) of 1e-05 s⁻¹ and a kon of 710000 M⁻¹ s⁻¹.

The record behind these values is patent publication US20160138004A1 (Hoffmann-La Roche, published 2016).
